Experiments:
[1] = molecular target: the molecule itself; assay: AUC; sedimentation velocity, SEC buffer, 20 °C, 42 000 rpm; P-PI4KB alone (20 µM) and with Rab11; stoichiometries independent of Rab11 nucleotide state
[2] = molecular target: T1, pseudo-wt PI4KB (human, UniProt Q9UBF8 1-816, internal deletion of a disordered loop (residues 423-522)); assay: SAXS; ACBD3 and pseudo-wt PI4KB mixed 1:1, dialyzed against 20 mM Tris pH 8, 200 mM NaCl, 2 mM TCEP, 1% glycerol; 3.0 and 4.5 mg/ml; conditions: both partners purified
T1 construct: phosphatidylinositol 4-kinase IIIβ (PI4KB) with intact N-terminus, containing only the internal deletion (residues 423-522)

[3] = molecular target: T2, pseudo-wt PI4KB labeled with Atto488 (human, UniProt Q9UBF8 1-816, internal deletion of a disordered loop (residues 423-522), Atto488 (maleimide labelling)); assay: GUV recruitment (confocal microscopy); ACBD3 tethered to GUVs with DGS-NTA(Ni); Atto488-PI4KB and mCherry-Rab11 in solution, each approximately 50 nM; conditions: both partners purified
T2 construct: phosphatidylinositol 4-kinase IIIβ (PI4KB) with intact N-terminus, containing only the internal deletion (residues 423-522); also called Atto488 labeled PI4KB; wild type PI4KB
T2 sequence (Q9UBF8 other isoform, or with tags, fused parts or gaps with the stated changes): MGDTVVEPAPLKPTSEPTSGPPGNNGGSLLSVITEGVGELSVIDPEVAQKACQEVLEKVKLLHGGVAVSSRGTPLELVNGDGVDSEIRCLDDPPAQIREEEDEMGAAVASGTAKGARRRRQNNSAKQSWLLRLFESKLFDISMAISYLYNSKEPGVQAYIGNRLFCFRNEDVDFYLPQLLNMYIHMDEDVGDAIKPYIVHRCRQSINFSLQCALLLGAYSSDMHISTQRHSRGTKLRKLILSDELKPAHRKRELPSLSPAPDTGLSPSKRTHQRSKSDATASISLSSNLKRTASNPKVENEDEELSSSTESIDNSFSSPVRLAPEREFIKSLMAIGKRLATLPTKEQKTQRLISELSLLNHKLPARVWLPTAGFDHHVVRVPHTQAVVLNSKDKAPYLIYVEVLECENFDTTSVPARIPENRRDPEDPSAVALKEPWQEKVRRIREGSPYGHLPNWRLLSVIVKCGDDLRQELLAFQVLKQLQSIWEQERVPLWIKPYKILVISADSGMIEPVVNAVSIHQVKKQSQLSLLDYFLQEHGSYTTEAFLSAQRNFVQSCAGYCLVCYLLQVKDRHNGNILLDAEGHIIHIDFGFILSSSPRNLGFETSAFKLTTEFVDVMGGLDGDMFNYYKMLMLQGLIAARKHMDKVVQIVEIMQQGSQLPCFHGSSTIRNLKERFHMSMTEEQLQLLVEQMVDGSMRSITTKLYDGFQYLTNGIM

T1 sequence (Q9UBF8 other isoform, or with tags, fused parts or gaps with the stated changes): as above

B1: phosphorylated PI4KB (residues 128-799, internal deletion 423-522, T292R, phosphorylated at S294 by PKA) (enzyme, human, UniProt Q9UBF8 128-799, looked up)
chain: SWLLRLFESKLFDISMAISYLYNSKEPGVQAYIGNRLFCFRNEDVDFYLPQLLNMYIHMDEDVGDAIKPYIVHRCRQSINFSLQCALLLGAYSSDMHISTQRHSRGTKLRKLILSDELKPAHRKRELPSLSPAPDTGLSPSKRTHQRSKSDATASISLSSNLKRRASNPKVENEDEELSSSTESIDNSFSSPVRLAPEREFIKSLMAIGKRLATLPTKEQKTQRLISELSLLNHKLPARVWLPTAGFDHHVVRVPHTQAVVLNSKDKAPYLIYVEVLECENFDTTSVPARIPENRRDPEDPSAVALKEPWQEKVRRIREGSPYGHLPNWRLLSVIVKCGDDLRQELLAFQVLKQLQSIWEQERVPLWIKPYKILVISADSGMIEPVVNAVSIHQVKKQSQLSLLDYFLQEHGSYTTEAFLSAQRNFVQSCAGYCLVCYLLQVKDRHNGNILLDAEGHIIHIDFGFILSSSPRNLGFETSAFKLTTEFVDVMGGLDGDMFNYYKMLMLQGLIAARKHMDKVVQIVEIMQQGSQLPCFHGSSTIRNLKERFHMSMTEEQLQLLVEQMVDGSMRS
modifications: phosphoserine at 294 (in vitro by protein kinase A)
notes: phosphatidylinositol 4-kinase IIIβ (PI4KB), residues 128-799 with internal deletion of a disordered loop (residues 423-522) and T292R; also called P-PI4KB; phosphatidylinositol 4-kinase IIIβ; source: phosphorylated in vitro by PKA; Mono Q, SEC
stoichiometry N [1]: 2

B2: ACBD3 (Acyl-CoA-binding domain-containing protein), tag cleaved (natural protein, UniProt Q9H3P7 1-528, looked up)
chain: MAAVLNAERLEVSVDGLTLSPDPEERPGAEGAPLLPPPLPPPSPPGSGRGPGASGEQPEPGEAAAGGAAEEARRLEQRWGFGLEELYGLALRFFKEKDGKAFHPTYEEKLKLVALHKQVLMGPYNPDTCPEVGFFDVLGNDRRREWAALGNMSKEDAMVEFVKLLNRCCHLFSTYVASHKIEKEEQEKKRKEEEERRRREEEERERLQKEEEKRRREEEERLRREEEERRRIEEERLRLEQQKQQIMAALNSQTAVQFQQYAAQQYPGNYEQQQILIRQLQEQHYQQYMQQLYQVQLAQQQAALQKQQEVVVAGSSLPTSSKVNATVPSNMMSVNGQAKTHTDSSEKELEPEAAEEALENGPKESLPVIAAPSMWTRPQIKDFKEKIQQDADSVITVGRGEVVTVRVPTHEEGSYLFWEFATDNYDIGFGVYFEWTDSPNTAVSVHVSESSDDDEEEEENIGCEEKAKKNANKPLLDEIVPVYRRDCHEEVYAGSHQYPGRGVYLLKFDNSYSLWRSKSVYYRVYYTR
notes: ACBD3 with ACBD, CAR, Q and GOLD domains; no limits of the construct are printed; not shown: His6-GB1, N-terminal, cleaved
binding result [2]: binds

B3: ACBD3 with N-terminal 6xHis-GB1 tag (for GUV reconstitution) (natural protein, UniProt Q9H3P7 1-528, looked up)
chain: B2 chain
notes: ACBD3 with ACBD, CAR, Q and GOLD domains; Tethered to GUVs that contain DGS-NTA(Ni); also called membrane tethered ACBD3; not shown: His6-GB1, N-terminal, kept
binding result [3]: binds

— article PMC6345845, “Phosphatidylinositol 4-kinase IIIβ (PI4KB) forms highly flexible heterocomplexes that include ACBD3, 14-3-3, and Rab11 proteins” (Scientific Reports, 2019)
